# Experimental data: publication PMC8654040 (Nature structural & molecular biology, 2021)
# B1: 488-labeled FUS SYGQ LC (FUS 1-163 labelled with DyLight 488 NHS ester) (domain or fragment, UniProt P35637 1-163, looked up)
# chain: MASNDYTQQATQSYGAYPTQPGQGYSQQSSQPYGQQSYSGYSQSTDTSGYGQSSYSSYGQSQNTGYGTQSTPQGYGSTGGYGSSQSSQSSYGQQSSYPGYGQQPAPSSTSGSYGSSSQSSSYGQPQSGSYSQQPSYGGQQQSYGQQQSYNPPQGYGQQNQYNS
# modifications: DyLight 488 (NHS ester labelling)
# B2: FUS RGG3 (453-507) (domain or fragment, UniProt P35637 453-507, looked up)
# chain: DGPGGGPGGSHMGGNYGDDRRGGRGGYDRGGYRGRGGDRGGFRGGRGGGDRGGFG
# What was measured:
# [1] = target: T1, FUS SYGQ LC (FUS 1-163), N-terminal low complexity domain (UniProt P35637 1-163); assay: co-sedimentation
# T1 sequence (looked up): B1 chain
# [2] = target: T1, FUS SYGQ LC (FUS 1-163), N-terminal low …; assay: intermolecular NOE NMR of a condensed phase
binder,measurement,setting,value
B1,binding result,[1],binds
B2,binding result,[2],binds
